This data set deals with the molecule itself. As to the kind of experiment: SDS-PAGE in non-reducing and reducing conditions; purified fragments separated in non-reducing and reducing (50 mM DTT) conditions; colloidal blue stain and anti-Myc immunoblot. Background: Immunoblotting shows a protein as a band on a membrane.

As usually defined, the stoichiometry N is the number of molecules, sites or subunits per partner or assembly.

B1: Trimeric TSP1 fragment, oligomerization domain + procollagen + 1^st & 2^nd type 1 repeats (aa 261–490) (domain or fragment, human, UniProt P07996 261-490, looked up)
chain: HKTKDLQAICGISCDELSSMVLELRGLRTIVTTLQDSIRKVTEENKELANELRRPPLCYHNGVQYRNNEEWTVDSCTECHCQNSVTICKKVSCPIMPCSNATVPDGECCPRCWPSDSADDGWSPWSEWTSCSTSCGNGIQQRGRSCDSLNNRCEGSSVQTRTCHIQECDKRFKQDGGWSHWSPWSSCSVTCGDGVITRIRLCNSPSPQMNGKPCEGEARETKACKKDACP
notes: thrombospondin-1 (TSP1), human, oligomerization domain + procollagen + 1st and 2nd type 1 repeats, aa 261-490; Subcloned into HindIII and XbaI sites of the APtag-5 vector; source: HEK293E suspension culture, transient transfection, purified from culture supernatant (HisTrap Excel); not shown: Myc, C-terminal, kept
B1: the “stoichiometry N” value came to 3.

B2: Trimeric TSP1 fragment, oligomerization domain + procollagen + type 1 repeats (aa 261–547) (domain or fragment, human, UniProt P07996 261-547, looked up)
chain: HKTKDLQAICGISCDELSSMVLELRGLRTIVTTLQDSIRKVTEENKELANELRRPPLCYHNGVQYRNNEEWTVDSCTECHCQNSVTICKKVSCPIMPCSNATVPDGECCPRCWPSDSADDGWSPWSEWTSCSTSCGNGIQQRGRSCDSLNNRCEGSSVQTRTCHIQECDKRFKQDGGWSHWSPWSSCSVTCGDGVITRIRLCNSPSPQMNGKPCEGEARETKACKKDACPINGGWGPWSPWDICSVTCGGGVQKRSRLCNNPTPQFGGKDCVGDVTENQICNKQDCP
notes: Subcloned into HindIII and XbaI sites of the APtag-5 vector; also called trimeric TSP1 fragment containing the procollagen domain and type 1 repeats; trimeric TSP1 fragment that contains all three type 1 repeats; source: HEK293E suspension culture, transient transfection, purified from culture supernatant (HisTrap Excel); not shown: Myc, C-terminal, kept
As for B2, the “stoichiometry N” value was found to be 3.

B3: Trimeric TSP1 fragment, oligomerization domain + procollagen (aa 261–373) (domain or fragment, human, UniProt P07996 261-373, looked up)
chain: HKTKDLQAICGISCDELSSMVLELRGLRTIVTTLQDSIRKVTEENKELANELRRPPLCYHNGVQYRNNEEWTVDSCTECHCQNSVTICKKVSCPIMPCSNATVPDGECCPRCW
notes: thrombospondin-1 (TSP1), human, oligomerization domain + procollagen, aa 261-373; Subcloned into HindIII and XbaI sites of the APtag-5 vector; also called trimeric TSP1 fragment containing the procollagen domain alone; source: HEK293E suspension culture, transient transfection, purified from culture supernatant (HisTrap Excel); not shown: Myc, C-terminal, kept
B3: the “stoichiometry N” value was 3.

B4: Trimeric TSP1 fragment, oligomerization domain + procollagen and 1^st type 1 repeat (aa 261–429) (domain or fragment, human, UniProt P07996 261-429, looked up)
chain: HKTKDLQAICGISCDELSSMVLELRGLRTIVTTLQDSIRKVTEENKELANELRRPPLCYHNGVQYRNNEEWTVDSCTECHCQNSVTICKKVSCPIMPCSNATVPDGECCPRCWPSDSADDGWSPWSEWTSCSTSCGNGIQQRGRSCDSLNNRCEGSSVQTRTCHIQECD
notes: thrombospondin-1 (TSP1), human, oligomerization domain + procollagen + 1st type 1 repeat, aa 261-429; Subcloned into HindIII and XbaI sites of the APtag-5 vector; also called trimeric TSP1 fragment containing the procollagen domain and the 1st type 1 repeat; source: HEK293E suspension culture, transient transfection, purified from culture supernatant (HisTrap Excel); not shown: Myc, C-terminal, …
As to B4, the “stoichiometry N” value stood at 3.

Source of the values: PMC4858292, “Determination of the CD148-Interacting Region in Thrombospondin-1” (PLoS ONE, 2016).
